Experiment [1] concerns the target T1, native IL-5R α/β complex on cells (TF-1 cells; human eosinophils) (human, UniProt Q01344 21-420; P32927 17-897).
T1 sequence (looked up) 1: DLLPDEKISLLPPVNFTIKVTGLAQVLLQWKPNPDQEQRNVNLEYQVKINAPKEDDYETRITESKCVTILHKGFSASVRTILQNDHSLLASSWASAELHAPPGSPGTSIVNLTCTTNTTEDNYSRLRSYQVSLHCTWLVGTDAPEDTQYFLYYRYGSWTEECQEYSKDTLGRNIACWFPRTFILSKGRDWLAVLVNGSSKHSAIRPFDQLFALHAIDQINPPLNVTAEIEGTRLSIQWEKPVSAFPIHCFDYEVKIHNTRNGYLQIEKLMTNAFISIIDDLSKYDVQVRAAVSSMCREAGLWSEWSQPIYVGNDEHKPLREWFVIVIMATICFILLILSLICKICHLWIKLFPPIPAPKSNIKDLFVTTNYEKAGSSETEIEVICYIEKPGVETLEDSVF
T1 sequence (looked up) 2: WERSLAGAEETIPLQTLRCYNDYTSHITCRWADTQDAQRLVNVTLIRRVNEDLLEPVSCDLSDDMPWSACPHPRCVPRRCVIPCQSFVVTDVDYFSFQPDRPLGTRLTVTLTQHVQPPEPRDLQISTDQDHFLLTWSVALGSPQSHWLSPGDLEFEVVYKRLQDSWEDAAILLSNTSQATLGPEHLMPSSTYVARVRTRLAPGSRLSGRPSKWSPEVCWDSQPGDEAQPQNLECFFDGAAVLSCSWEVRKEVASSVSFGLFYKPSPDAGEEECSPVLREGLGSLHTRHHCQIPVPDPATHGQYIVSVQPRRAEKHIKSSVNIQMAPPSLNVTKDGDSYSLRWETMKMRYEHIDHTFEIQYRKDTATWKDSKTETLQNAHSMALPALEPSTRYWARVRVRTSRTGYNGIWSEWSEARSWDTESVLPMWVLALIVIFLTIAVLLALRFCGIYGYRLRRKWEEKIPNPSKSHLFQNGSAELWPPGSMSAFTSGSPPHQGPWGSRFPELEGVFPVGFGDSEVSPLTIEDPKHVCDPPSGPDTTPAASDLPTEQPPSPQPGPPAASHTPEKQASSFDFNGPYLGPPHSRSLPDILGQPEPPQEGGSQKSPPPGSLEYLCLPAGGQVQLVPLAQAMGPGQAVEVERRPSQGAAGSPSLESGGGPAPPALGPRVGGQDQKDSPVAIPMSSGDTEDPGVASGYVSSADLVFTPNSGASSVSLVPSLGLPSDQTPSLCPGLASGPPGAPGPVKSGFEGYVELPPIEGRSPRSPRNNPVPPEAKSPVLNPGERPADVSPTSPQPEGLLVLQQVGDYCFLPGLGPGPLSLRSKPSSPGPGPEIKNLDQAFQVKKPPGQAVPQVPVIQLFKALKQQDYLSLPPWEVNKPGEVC
Nature of the experiment: cell-based or functional assay.

For experiment [2], the target named is IL-5RαECD, extracellular domain (ECD) of the human IL-5 receptor α chain, soluble (human, UniProt Q01344 21-342). Put plainly: scintillation proximity competition assay, dimer against 20 pM [125I] IL-5 on IL-5Rα coated beads. As to the method:
(§1) Binding affinities of synthetic peptides for IL-5Rα were measured in a scintillation proximity assay (SPA) using radio-iodinated IL-5. Streptavidin coated SPA beads (Amersham) were suspended in IL-5 binding buffer (phosphate buffered saline, 0.1% bovine serum albumin, 0.2% NaN_3) at 2 mg beads/ml of buffer. Biotinylated mAb 179 was adsorbed onto the beads at a ratio of 2 μg Ab/mg beads by incubating the beads and antibody with agitation for at least 2 h. at 4°. The beads were pelleted at 2500 rpm and resuspended at 2 mg/ml in binding buffer. Soluble IL-5Rα was then adsorbed onto the beads by diluting a solution of soluble receptor harvest 1:500 into the bead suspension and incubating with agitation for 2 hr at 4°. The beads were again pelleted at 2500 rpm and resuspended at 2 mg/ml in binding buffer. Competition binding assays were carried out in 100 μl reactions in white polystyrene microtiter plates. […] IL-5 (Amersham). The plates were incubated at room temperature for 1 hour with agitation, then centrifuged for 5 min at 1500 rpm followed by scintillation counting on a Topcount instrument (Packard). […] IL-5 bound in the absence of any competitor. […] IL-5 bound in the presence of 30 nM IL-5. […] IL-5 binding by 50% (IC$50$). In each instance, the dimer has both intramolecular and intermolecular disulfide linkages as shown generically below: […]
In general terms: SPA uses beads or plates that emit light when radiolabelled molecules are held near them.

The target in experiment [3] is T2, IL-5RαECD, extracellular domain (ECD) of the human IL-5 receptor α chain, soluble (human, UniProt Q01344 21-342).
T2 construct: extracellular domain; Captured through mAb 179 (anti-HPAP tail) in the plate, SPA and bead assays; also called soluble IL-5Rα; IL-5 receptor alpha chain extracellular domain
T2 sequence (Q01344 whole entry, looked up): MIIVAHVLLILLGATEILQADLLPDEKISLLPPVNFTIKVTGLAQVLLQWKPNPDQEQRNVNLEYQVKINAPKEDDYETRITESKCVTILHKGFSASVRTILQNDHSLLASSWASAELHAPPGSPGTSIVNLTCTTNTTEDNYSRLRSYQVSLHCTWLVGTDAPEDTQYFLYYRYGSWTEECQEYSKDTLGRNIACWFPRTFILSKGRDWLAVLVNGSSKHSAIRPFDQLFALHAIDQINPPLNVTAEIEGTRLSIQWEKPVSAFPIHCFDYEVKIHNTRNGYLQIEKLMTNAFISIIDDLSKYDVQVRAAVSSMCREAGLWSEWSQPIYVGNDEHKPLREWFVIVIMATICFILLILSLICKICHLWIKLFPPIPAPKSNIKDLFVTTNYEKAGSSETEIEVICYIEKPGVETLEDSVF
The experiment is described as above. As to the method:
as §1

Bridge positions count the residues as written; N and C are the ends. Square brackets hold non-standard residues; d marks the D form. Ends that are not written are not given here. Dap = NC[C@H](N)C(=O)O; Ahx = NCCCCCC(=O)O

B1: dimer of (Ac)-EGYVCVEWARCPTCK-(NH2) (peptide)
peptide: Ac-EGYVCVEWARCPTCK-NH2
modifications: disulfide (positions not given here); also: dimer, intramolecular and intermolecular disulfide linkages, places not given here
Turning to B1, in experiment [1], the “Microphysiometer pIC50 (block of the TF-1 cell response to IL-5)” value (from here on “Microphysiometer pIC50”) is 8.5.

B2: dimer of (H)-EGYVCVEWARCPTCK-(OH) (peptide)
peptide: H-EGYVCVEWARCPTCK-OH
modifications: disulfide (positions not given here); also: dimer, intramolecular and intermolecular disulfide linkages, places not given here
Consider B2, for which, in experiment [1], the “Microphysiometer pIC50” value is 9.2. In addition, the “SPA pIC50” value in experiment [2] came out at 8.7.

B3: dimer of (H)-EGYVCVEFARCPTCR-(OH) (peptide)
peptide: H-EGYVCVEFARCPTCR-OH
modifications: disulfide (positions not given here); also: dimer, intramolecular and intermolecular disulfide linkages, places not given here
Regarding B3, in experiment [3], the “SPA pIC50” value came out at 6.8.

B4: dimer of (H)-EGYVCVEWARCPTCR-(OH) (peptide)
peptide: H-EGYVCVEWARCPTCR-OH
modifications: disulfide (positions not given here); also: dimer, intramolecular and intermolecular disulfide linkages, places not given here
For the molecule B4, the “Microphysiometer pIC50” value in experiment [1] was 9.6. Further, the “SPA pIC50” value in experiment [3] worked out at 8.4.

B5: dimer of (H)-EGYVCVEFARCPTCG-(NH2) (peptide)
peptide: H-EGYVCVEFARCPTCG-NH2
modifications: disulfide (positions not given here); also: dimer, intramolecular and intermolecular disulfide linkages, places not given here
On to B5, for which the “SPA pIC50” value in experiment [2] turned out to be 6.6.

B6: dimer of (H)-GYVCVEFARCPTCG-(NH2) (peptide)
peptide: H-GYVCVEFARCPTCG-NH2
modifications: disulfide (positions not given here); also: dimer, intramolecular and intermolecular disulfide linkages, places not given here
Regarding B6, the “SPA pIC50” value in experiment [2] was 6.1.

B7: dimer of (H)-EGYVCVEWARCPTCG-(NH2) (peptide)
peptide: H-EGYVCVEWARCPTCG-NH2
modifications: disulfide (positions not given here); also: dimer, intramolecular and intermolecular disulfide linkages, places not given here
For the molecule B7, the “Microphysiometer pIC50” value in experiment [1] is 9.1.

B8: dimer of (H)-EGYVCVEWARCPTCR-(NH2) (peptide)
peptide: H-EGYVCVEWARCPTCR-NH2
modifications: disulfide (positions not given here); also: dimer, intramolecular and intermolecular disulfide linkages, places not given here
As for B8, in experiment [1], the “Microphysiometer pIC50” value came out at 9.1.

B9: dimer of (Ac)-EGYVCVEWAACPTCR-(NH2) (peptide)
peptide: Ac-EGYVCVEWAACPTCR-NH2
modifications: disulfide (positions not given here); also: dimer, intramolecular and intermolecular disulfides, places not given here
Take B9: in experiment [1], the “Microphysiometer pIC50” value came to 6.9.

B10: dimer of (Ahx)-EGYVCVEWARCPTCR-(NH2) (peptide)
peptide: [Ahx]EGYVCVEWARCPTCR-NH2
modifications: disulfide (positions not given here); also: dimer, intramolecular and intermolecular disulfide linkages, places not given here
On to B10, for which the “Microphysiometer pIC50” value in experiment [1] came out at 9.

B11: dimer of two chains of residues 36-50 of SEQ ID NO: 9 (structure only in drawing CHEM-US-00014) (peptide)
peptide: Ac-EGYV[Dap]VEWARCPTCR-NH2
modifications: cysteine pairing not given here; also: homodimer, link between chains only in drawing
Take B11: the “Microphysiometer pIC50” value in experiment [1] was 6.5.

B12: dimer of (H)-GYVCVEWARCPTCR-(OH) (peptide)
peptide: H-GYVCVEWARCPTCR-OH
modifications: disulfide (positions not given here); also: dimer, intramolecular and intermolecular disulfide linkages, places not given here
Regarding B12, in experiment [1], the “Microphysiometer pIC50” value came out at 8.4. Also, in experiment [2], the “SPA pIC50” value came to 8.2. On to H-TGGGDGYVCVEWARCPTCK-OH (disulfide 15-18; also: homodimer via interchain Cys9-Cys9 disulfide) [AF18748, synthetic dimer of (H)-TGGGDGYVCVEWARCPTCK-(OH)], for which the “Microphysiometer pIC50” value in experiment [1] stood at 9.6. In addition, the “SPA pIC50” value in experiment [3] turned out to be 9.1.

B13: dimer of (Ac)-EGYVCVEWARCPTCR-(NH2) (peptide)
peptide: Ac-EGYVCVEWARCPTCR-NH2
modifications: disulfide (positions not given here); also: dimer, intramolecular and intermolecular disulfide linkages, places not given here
With B13, in experiment [1], the “Microphysiometer pIC50” value worked out at 8.4.
